PMC7933155, “IL-23p19 and CD5 antigen-like form a possible novel heterodimeric cytokine and contribute to experimental autoimmune encephalomyelitis development” (Scientific Reports, 2021)

Biological target: the molecule itself
Experiment: non-reducing SDS-PAGE and western blot; culture supernatants of HEK293T cells transfected with a p19 expression vector, western blot under non-reducing conditions

B1: mouse IL-23 p19 from HEK293T cells transfected with a p19 expression vector (vector not named) (natural protein, UniProt Q9EQ14 22-196, looked up)
chain: VPRSSSPDWAQCQQLSRNLCMLAWNAHAPAGHMNLLREEEDEETKNNVPRIQCEDGCDPQGLKDNSQFCLQRIRQGLAFYKHLLDSDIFKGEPALLPDSPMEQLHTSLLGLSQLLQPEDHPRETQQMPSLSSSQQWQRPLLRSKILRSLQAFLAIAARVFAHGAATLTEPLVPTA
notes: Interleukin-23 subunit alpha (p19), mouse; source: HEK293T, transfected, in culture supernatant
stoichiometry N: 2
